± gives the uncertainty stated by the source.
B1: POU domain, class 3, transcription factor 1, residues 247 to 324; numbered along this chain, Q03052 (parent)
chain: EDAPSSDDLEQFAKQFKQRRIKLGFTQADVGLALGTLYGNVFSQTTICRFEALQLSFKNMCKLKPLLNKWLEETDSSS

Variants of: B1
Assay: abundance fitness (aPCA) (normalised: wild type 0, dead -1); higher = more abundant; growth selection in yeast, the domain comes from the species named
Settings: Homo sapiens

Row | Variant | abundance fitness
1 | EDAPSSDDLEQFAKQFKQRRIKLGFTQADVGLALGTLYENVFSQTTICRFEALQLSFKNMCKLKPLLNKWLEETDSSS | -0.344 ± 0.081
2 | EDAPSSDDLEQFAKQFKQRRIKLGFTQADVGLALGTLYWNVFSQTTICRFEALQLSFKNMCKLKPLLNKWLEETDSSS | -0.421 ± 0.098
3 | EDAPSSDDLEQFAKQFKQRRIKLGFTQADVGLALGTLYNNVFSQTTICRFEALQLSFKNMCKLKPLLNKWLEETDSSS | -0.213 ± 0.35
4 | EDAPSSDDLEQFAKQFKQRRIKLGFTQADVGLALGTLYGIVFSQTTICRFEALQLSFKNMCKLKPLLNKWLEETDSSS | -0.117 ± 0.17
5 | EDAPSSDDLEQFAKQFKQRRIKLGFTQADVGLALGTLYGFVFSQTTICRFEALQLSFKNMCKLKPLLNKWLEETDSSS | -0.167 ± 0.16
6 | EDAPSSDDLEQFAKQFKQRRIKLGFTQADVGLALGTLYGTVFSQTTICRFEALQLSFKNMCKLKPLLNKWLEETDSSS | 0.031 ± 0.067
7 | EDAPSSDDLEQFAKQFKQRRIKLGFTQADVGLALGTLYGWVFSQTTICRFEALQLSFKNMCKLKPLLNKWLEETDSSS | -0.244 ± 0.059
8 | EDAPSSDDLEQFAKQFKQRRIKLGFTQADVGLALGTLYGSVFSQTTICRFEALQLSFKNMCKLKPLLNKWLEETDSSS | 0.004 ± 0.05
9 | EDAPSSDDLEQFAKQFKQRRIKLGFTQADVGLALGTLYGDVFSQTTICRFEALQLSFKNMCKLKPLLNKWLEETDSSS | 0.062 ± 0.073
10 | EDAPSSDDLEQFAKQFKQRRIKLGFTQADVGLALGTLYGHVFSQTTICRFEALQLSFKNMCKLKPLLNKWLEETDSSS | -0.179 ± 0.13
11 | EDAPSSDDLEQFAKQFKQRRIKLGFTQADVGLALGTLYGEVFSQTTICRFEALQLSFKNMCKLKPLLNKWLEETDSSS | 0.031 ± 0.053
12 | EDAPSSDDLEQFAKQFKQRRIKLGFTQADVGLALGTLYGAVFSQTTICRFEALQLSFKNMCKLKPLLNKWLEETDSSS | -0.179 ± 0.057
13 | EDAPSSDDLEQFAKQFKQRRIKLGFTQADVGLALGTLYGRVFSQTTICRFEALQLSFKNMCKLKPLLNKWLEETDSSS | 0.07 ± 0.046
14 | EDAPSSDDLEQFAKQFKQRRIKLGFTQADVGLALGTLYGKVFSQTTICRFEALQLSFKNMCKLKPLLNKWLEETDSSS | 0.263 ± 0.066
15 | EDAPSSDDLEQFAKQFKQRRIKLGFTQADVGLALGTLYGYVFSQTTICRFEALQLSFKNMCKLKPLLNKWLEETDSSS | -0.282 ± 0.12
16 | EDAPSSDDLEQFAKQFKQRRIKLGFTQADVGLALGTLYGLVFSQTTICRFEALQLSFKNMCKLKPLLNKWLEETDSSS | -0.237 ± 0.052
17 | EDAPSSDDLEQFAKQFKQRRIKLGFTQADVGLALGTLYGVVFSQTTICRFEALQLSFKNMCKLKPLLNKWLEETDSSS | -0.131 ± 0.053
18 | EDAPSSDDLEQFAKQFKQRRIKLGFTQADVGLALGTLYGMVFSQTTICRFEALQLSFKNMCKLKPLLNKWLEETDSSS | -0.126 ± 0.065

Row | Variant | abundance fitness
19 | EDAPSSDDLEQFAKQFKQRRIKLGFTQADVGLALGTLYGPVFSQTTICRFEALQLSFKNMCKLKPLLNKWLEETDSSS | -0.276 ± 0.096
20 | EDAPSSDDLEQFAKQFKQRRIKLGFTQADVGLALGTLYGQVFSQTTICRFEALQLSFKNMCKLKPLLNKWLEETDSSS | 0.103 ± 0.061
21 | EDAPSSDDLEQFAKQFKQRRIKLGFTQADVGLALGTLYGGVFSQTTICRFEALQLSFKNMCKLKPLLNKWLEETDSSS | 0.008 ± 0.038
22 | EDAPSSDDLEQFAKQFKQRRIKLGFTQADVGLALGTDYGNVFSQTTICRFEALQLSFKNMCKLKPLLNKWLEETDSSS | -0.35 ± 0.14
23 | EDAPSSDDLEQFAKQFKQRRIKLGFTQADVGLALGTGYGNVFSQTTICRFEALQLSFKNMCKLKPLLNKWLEETDSSS | -0.275 ± 0.061
24 | EDAPSSDDLEQFAKQFKQRRIKLGFTQADVGLALGTQYGNVFSQTTICRFEALQLSFKNMCKLKPLLNKWLEETDSSS | -0.054 ± 0.084
25 | EDAPSSDDLEQFAKQFKQRRIKLGFTQADVGLALGTMYGNVFSQTTICRFEALQLSFKNMCKLKPLLNKWLEETDSSS | 0.097 ± 0.072
26 | EDAPSSDDLEQFAKQFKQRRIKLGFTQADVGLALGTVYGNVFSQTTICRFEALQLSFKNMCKLKPLLNKWLEETDSSS | -0.198 ± 0.073
27 | EDAPSSDDLEQFAKQFKQRRIKLGFTQADVGLALGTNYGNVFSQTTICRFEALQLSFKNMCKLKPLLNKWLEETDSSS | -0.333 ± 0.19
28 | EDAPSSDDLEQFAKQFKQRRIKLGFTQADVGLALGTEYGNVFSQTTICRFEALQLSFKNMCKLKPLLNKWLEETDSSS | -0.062 ± 0.06
29 | EDAPSSDDLEQFAKQFKQRRIKLGFTQADVGLALGTHYGNVFSQTTICRFEALQLSFKNMCKLKPLLNKWLEETDSSS | 0.133 ± 0.36
30 | EDAPSSDDLEQFAKQFKQRRIKLGFTQADVGLALGTYYGNVFSQTTICRFEALQLSFKNMCKLKPLLNKWLEETDSSS | 0.175 ± 0.15
31 | EDAPSSDDLEQFAKQFKQRRIKLGFTQADVGLALGTFYGNVFSQTTICRFEALQLSFKNMCKLKPLLNKWLEETDSSS | -0.06 ± 0.098
32 | EDAPSSDDLEQFAKQFKQRRIKLGFTQADVGLALGTSYGNVFSQTTICRFEALQLSFKNMCKLKPLLNKWLEETDSSS | -0.261 ± 0.1
33 | EDAPSSDDLEQFAKQFKQRRIKLGFTQADVGLALGTIYGNVFSQTTICRFEALQLSFKNMCKLKPLLNKWLEETDSSS | 0.11 ± 0.15
34 | EDAPSSDDLEQFAKQFKQRRIKLGFTQADVGLALGTWYGNVFSQTTICRFEALQLSFKNMCKLKPLLNKWLEETDSSS | -0.251 ± 0.075
35 | EDAPSSDDLEQFAKQFKQRRIKLGFTQADVGLALGTKYGNVFSQTTICRFEALQLSFKNMCKLKPLLNKWLEETDSSS | 0.137 ± 0.072
